Assay results from the domain aggregation screens of Martell et al. (2025).

Test: soluble fraction after stress (log2 fold change); higher = more stays soluble; pooled small domains, quantitative proteomics
Conditions: stress: 75 degC
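Further: 20 min heating vs room temperature control held 20 min.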

Sequence	soluble fraction (log2)
HMAFKEQLKAARLAKGYTQEQLATAIGVAKSTFTGYEKGNSEPNMLTIKKLMEILEVDANYLWY	-2.91
HMAFRWQQIADTITSMIANGSYPRGSRLPTEAALADSFGVNRHTVRRAVAALRDTGLVQPRQGAGVFVIG	-2.02
HMAFYQDIAVDLRKQIIDGVYPKNSRLPNQAELAKLYTTSRVTIQKALKILQIEGLIEGRQGSGSYVKGP	-2.11
HMAGHKVDFSELPARSQAFIGKNFPTEMVKNVEMERKDAKDHYTVLLSNGTKVMFDGTSGELTGV	0.0762
HMAGISQGLAENVERRITTLLREQKEVPVHDIDFPGISRETVGQVLHQMVQEEKLLLDDGMISLSPNQ	0.181
HMAGPAGASEVANARDGDDETPLHMAARGGYPGIVRMLLAAGAKADAKSAAGLFPWNYAEDGSELHALLPR	0.139
HMAGPTIVTNSQGVPNYHLVKRGDTVSQIAQRYGLNYRQIGAINNLDSKYTIYSGQWLKLWQG	-1.37
HMAGQWQQDQNGWKYKTDNGDHMKNTWYQDSDSRWYYFGPDGYMKSSTMTPDGYVVGSDGAWIE	-0.662
HMAGSGDLNAKYLASIPAPMKAKILKAVANHYGVSISEFEEEVTDKDAEALYEYIPTRSMAVQVLRDMKG	-0.829
HMAGSGLPVPRFVSLADDRVNARAGPGFRFPINWVYLRKGFPVEVVDEFGPWRRIRDIDGVAAWIHLSMLS	-0.654
HMAGTAFPVRIMLKGIDRIGLLNEITGYISVAMGVNMRKLNLSTEDGIFEGYIDMLVHDRTVLESMIDNL	-0.381
HMAGTELASIKEIQSLVDRSEEALSARNFFWPKDKSESMLLSFRNMFSRLKLTKMDVQIFHGIFKVMEKS	0.24
HMAGVSVTSLTTFWRLAADTPDTPSGADDPSGWSRTEPSIPDGYEGKLYRTIRTIMSDGTATWTSPD	-0.728
HMAGYDTYMVDRDAELLPWLLETLQRESRSKVKATLQGNGIKVNGKRVTQFNYPLKAGMKVSVSKSK	0.0362
HMAHILDLMELKQILRLHMDGLSNRRISDTLGIHRNTINSYVSQFKASKHGIEELLKLSDYELAQLFP	-2.49
HMAHRYQQIADDLGRRVEAGEFAAGRLLPSEATLSGQYKASRVTVRKALEALRTDGLVESRQGFGWFVAAD	-0.405
HMAIADQPISAEHFDKLRQVLNSNTQETIASAKQHWASISNNAEFTNENVTRTLLEEMLAFIKSAS	0.415
HMAIDVQELARTRLRSLRTTLGYSLDELAARTHLSPSTISRLETGKRSLSLDVVVPLAQALHVSLDVLFEA	-2.67
HMAIEGIFEKYQRRSDQLIPILQDVQKEFGYIAPESVRHISRYLRISENQIFGVSSFYAQFRFT	-0.228
HMAIGTDPETGISVVADGTDFIWTRSGATSTIFLRLDSENSYILNVKQGDFEVIDYELGEGQENAINIDQS	0.0422
HMAIPEVDPAKQGVSATQLAALDALAHRNAGEGRVAGMVNVVIRNGEIVYYKATGPRHIDGGAPLKSTDLF	-0.148
HMAIQGVRLYERTLETGDPWLDRPLSTLSTGTRLIILVRRGGDVLIPKGDTVLLAGDTLVINDS	-3.85
HMAIRPDAAVSSHAVKQRLQSLIRAEDPAAPLSDEALRLALSALGIGVSRRAVAKYRAEMGIPSSSQRKK	-0.492
HMAISQYGSQSDEVTKIQTRLKAWGYFDGPVTAYYGSQTTEAVKKFQQKHGLSATGVADAKTLELIGLP	-0.397
HMAITLEQFLSVNPHIRNNLYGNAVELVKDKDFSVLSDKLKASSKWANEPSLYKILSHYDEIIS	-0.335
HMAKDSQSADVLQAIFDGSKVLNGLALDQDMRWDLINGLVMSGRLGVEAIEAEAAKLAKLVEELEFR	-0.976

Sequence	soluble fraction (log2)
HMAKETLRANIKDYIQKQIASGVYRPGDRIVETQLAREMNVSQAPVREAILELVSLGLLEERPYSGHMVRQ	0.0046
HMAKIKVFELKNQINSLIKNKIESKDIIDFIETNFGVKKSHSSALEENEANFIKNYFVHADKA	-0.264
HMAKIPASTVVEIDGAPVVVAVRVNARARSYRLSIPHSGGPLLTLPPHGKWAEAEAFLLRHHNWLAARLHR	-2.92
HMAKQEPTDNGYDIYKVTASVLNVRNGAGTSYAVAYQLSKEDYVEVVSIDKGWAKLKDGKYVSADWITLYK	-2.53
HMAKRINVKLIMELSAGGLTQNEIASSRHFSKTSVNLVLKTARELNVSAADLREMSPEEAYRLFFPEK	-1.66
HMAKRKTEKTSVLEEIDGVGKARARALLARFGGLSGVKAASPEELRTVRGITPEIAENIRRYFQ	-0.0813
HMAKRMRNPNGYGSIVKLSGNRRNPYMVKVNTHMDERYYPVYDILGYYPTWADASIALAKYNDDPYNVS	-0.777
HMAKRQATIVYEGTNVRSGPSTSSAIVKRTGKGESYPIVSTKGDWYEIKLSNGDSAYVASWVVQTVD	-0.728
HMAKRYFVTTGVRVRTKPDTANSEVLTVLDEGSEIDYKGDYNNEWVKINYNGQEAYIAKQYVRSEE	-0.382
HMAKSDLNYLDFKSKLEAGEIAKASVIRNEDTFKVTLQNGEVYNVTSPDYEDFRKELLEAGVDIQVSK	0.116
HMAKSMRHLIVPSRETSLWRDKLSTNGWLSKGYGIHNLDDYRGIPLNETAPKIIEGLEITELEPIS	0.124
HMAKTALEQAQAMVAAYVAAEQQILLGKEVRMGGPGIDRWLRFEDLQEVRAGRKEWESTVTRLQNTAA	-1.27
HMAKTGMDALVGRRVVLTKAIAGEGEGLVAVDGDVWRATSPAGSAIPKGTEVRITGYRSIVLEVEPI	-1.87
HMAKYEVVAKDIISRIKQNEFETTLKLPTEDEMIEYYQVSRNTVRSALKLLTSQGIIFSRQGSGFYIRQRS	-1.95
HMALALSGVDLNRNRLTISWQTSKGVSYRVQRSSDLQSWTDVGAERLGNGNRLSHTQALNTESAFLRVII	-0.0203
HMALEGTLARVSVRIPESGVGEIIFSLGGVRRSEAARSVSGRAIPRGTEVVILSYERGIATVQPYEELLTN	-1.64
HMALEVPGIAKDKIYRIFGQLYERQQKWEDAIDYYNRAVFFTLSGTDMILYQEDLSRVKQKISL	-0.283
HMALKRVAPQGEDKLSAQLDGVEFDKLIPWLGMLEHDHRIAIVNLSIDRANATGLVNARVIL	0.115
HMALKSGVIAHAVDDAVMRGLNVFTVSDDGSIVSMKDNDIVLGKDGKSPYSVSEWLEELKPNVPHWFG	-0.166
HMALKSYEDMVGKTGVAYTVLRPSGKVIINDELFDATARSGMIEKGNEVIIYDYKNAQLIVEK	0.263
HMALPASLSPREREIVSLISQGKTNSEIASLLYISVPTVKTHISNIFQKTGVSNRTSLLNRLRMS	-0.996
HMALPHEIKQKWLEEIMTMLRSSDSVTINKVYLHFPENKSHWVDEILTDLSNTHMITRQHDFIRLKN	-0.964
HMALQDKYKQLVDTATASGVANLQVREQDGVLYIDGEAPSGSVKDQLWDIYGKIDPNFLSGDVVMNINV	-0.148
HMALQLPFSFAKRHKVLVESAHEPVKVYHTPSTDFAVFAEVRRFLDQTFVLEEIAENRFEELLTSSFQRD	-1.1
HMALSETIYRLRTEHGLSQGDLAAELDVSRQSISKWETGSSVPELDKLVAMSRLFGVSLDELVLGE	-0.85
HMALSLPDDMTIVRKDGSSLEVRLKSRTVTEIHFERISDSETFQFSIDQLDETTRELVEQYPVM	-0.31

Sequence	soluble fraction (log2)
HMALTAEVLRSLIKHHGLGQSIQRTAKAVGLSASTVKKYFDRIAAANLTWQEAKSRTQEELIASLQPT	-0.813
HMALTARDLGLTHRQADVLHLVLQGKPVKLIARDLGLAEGTVKSHVSAVLRALNVTTRTQAIVAAGRLGLM	-2.18
HMAMDITLPLAEVRRQSLEQIERQYLNELMSKHLGRINRAAEAAGITTRQLHKLLTKYSIRKEDFK	-1.25
HMAMESDELETLVDQLIVDHPDEWSRFVGGDDGDRKKMQGFFTGQIMKATKGQADGRAVAQLLGQKSA	0.0717
HMAMLSKREAEILKLTAKGHSSTDIAQRLTISVNTVEFHRRRIMQKLNAANVAEAVGKAAELGLFF	-2.47
HMAMSAGEVVERIREHVGHPATIKELMRVLAIPNEERYRFRRRIKQLVEAGELIRIRGNRYGLADR	-2.83
HMAMTITKIEKTSQQKIYYFTDSGRVFKKMSDRSATIAVDDRVELEGGVLGSKFFVTANGSRVKVKEV	-2.9
HMAMYSREKLKKLREDRGLTQYELAKIAGISVVTLNKIESSDSAKPFVKTLNKIAQALGVGIDELS	-1.77
HMAMYYVIGGDGQQYGPIDEATVRGWLGEGRVSAASLSFKTGEAQWIPLRDRPELADVLATA	-0.137
HMANKLSEQIYGSILKDIVNGVYAPREFISEAQIAAKYGVSKAPVKEAMHILASEGFLLSYPKRGYMVN	-0.889
HMANKQLQEKLKNYISENGSLSSAAKAIGLSPATLSTYLKDKYEGNVANVETRLTEIFETVEAANNLL	-0.353
HMANKTISMTTLKLVIQQLSKGISRQSISAQYHISRNTIKKYEKRIKAMDMKIEDILKLSDEEISNLLQ	-3
HMANLNFDMSQIVASRYQEKAAELGVTAPSLARTDYNTQEQATYEFVAREIIADYYDDRVAPFNDLIPE	-0.191
HMANNPISMIKIRQILRLHIQGRSKLQIAAQTGISRNTLKKYLKEFEASKLTYDEISELSDKDLEDLFIK	-2.86
HMANTSAVIKQPGLVKLFAQHFVRNGFNAMKAAEAAGFVRPSPTFVRNLADSKPVKDAISELLGPYNDA	-0.183
HMANWRVGQTINALVSDRMPSGGLLLTVGRQSFVTTRDIPVQPGARIMLEVQQVEPKLVLRLVSA	-1.8
HMAPADLSPEERVVLDALALEPVHVDALAAKLGRRSEELLTSLTLMEMRGLAVAHAGSRYSRATMT	-0.14
HMAPEEIPLDRVVRLVEQGRVESIVVTGERLEVTLQNGTVYGSTKENGVGFMETLDRYQVPLEQRDFSYEV	-0.148
HMAPELRSDAQMRRLWALAKENGLDEVGFRAFISDATGREVESTKSLTATEAHRLIEELEAP	-0.0689
HMAPEPFIVQITASSLNVRKGPGTSYAVAQTVSKGQVFTIVQQQGGWGKLKSGAGWISLKYTAR	-1.74
HMAPEQWYVLTSGQLPKGPYRLRHIVAMSKGDNWLVARKGAEQWTPLRHLPEFRQAQEANEYIQAIS	-1.48
HMAPFSGVEPREWDSLVERGRQSGEVHAEDVTHVLRHVELTGDVLTDVQSKMAEHGITIDDA	0.161
HMAPGASEVPDLTSLPAREALLRLTKLGLLPEMEGTGRLVRQQPAAGTRVPKGSKVHLVFEPG	0.123
HMAPIEVPYNVFRQQVVEGNVESVATRADTVQGYFETPVTLPARPDAAAAEPVTVERFSTTLPSF	0.27
HMAPKRIVLRFGKDISDKPIIYYLVKDYDLVINILKANVNPNKEGTLVLELSGENYDKGIEFLISQGVTVQ	-1.8
